{"source": "paper PMC2635643", "about": "“Improving the Stability of Insulin in Solutions Containing Intestinal Proteases in Vitro” (International Journal of Molecular Sciences, 2008)", "key": {"[1]": {"test": "UV absorption spectra of insulin in different solutions", "assay_type": "physicochemical", "conditions": "Table 1, UV absorption at 275 nm; insulin 100 μg/mL, casein 200 μg/mL, HP-β-CD 1 mg/mL (Figure 6A)", "method": "Absorption spectra were recorded on a Shimadzu UV-2450 spectrophotometer. The absorption spectra were carried out according to Kano et al.."}, "[2]": {"tested_on": "α-chymotrypsin", "test": "Degradation of insulin induced by α-chymotrypsin (remaining insulin by HPLC and PAGE)", "assay_type": "in vitro ADME", "method": "(§1) HPLC was carried out according to Todo et al. with minor modifications. Analyses of remaining insulin were carried out by reserve phase HPLC with an isocratic system (Shimadzu Co., Kyoto) using the raw insulin bulk drug as the standard (28 IU/mg). The HPLC system was composed of a pump (LC-10ADvp), diode array detector (SPD-M10Avp), column oven (CTO-10ASvp), and LC workstation (CLASS-LC10). The mobile phase was a 72:28 mixture of 0.2 mol/L sodium sulphate buffer (pH 3.0) and acetonitrile at a flow rate of 1.0 mL/min. The column was a Shodex Asahipak ODP-50 6D (4.6mm × 150 mm, 5 um) (Showa Denko, Ltd., Tokyo) heated at room temperature. Ultraviolet absorption was measured at 214 nm.\n(§2) PAGE was carried out according to Laemmli with minor modifications. The running gel, stacking gel and electrode buffer are without sodium dodecyl sulfate (SDS). The running gel and stacking gel contained 15% and 4.5% acrylamide, respectively. After electrophoresis, the gels were subjected to stain with Coomassie Brilliant R-250.\n(§3) Insulin was dissolved in a few drops of 0.05 mol/L HCL, then 0.05 mol/L PBS (phosphate buffer, pH=7.0) was added. α-Chymotrypsin (5 mg/mL) and trypsin (12 mg/mL) solutions were prepared with Tris-HCL buffer (pH=8.0), respectively. Casein (5 g) was dissolved in 0.1 mol/L NaOH (10 mL), then was diluted to 100 mL with PBS (pH=7.0), The pH of final concentration was again measured and adjusted to pH 7.0. 5% Protamine solution was prepared with PBS (pH=7.0). Insulin solution and enzyme solutions were incubated at 37 °C for 15 min. Different treatments were administered. The final concentration of insulin in the solution was 0.5 mg/mL. The final mass ratios in the solution were as following, insulin:HP-β-CD = 1 :30; insulin:casein = 1:10; insulin:protamine = 1:10; insulin:casein or protamine:HP-β-CD = 1:10:30. Before the addition of a-chymotrypsin solution, insulin solution was vortexed at high speed for 5 s and a sample was withdrawn and added with ice-cold 0.5% TFA acid as the zero time sample. Samples were withdrawn for 15, 30, 45 and 60 min after the addition of the enzyme solution at 37 °C. The final enzyme concentrations of α-chymotrypsin and trypsin were 8 mg/L [29] and 600 mg/L [21], respectively. Then the samples were analyzed by PAGE and HPLC after adding 50 μl of ice-cold 0.5% TFA acid to terminate the reaction. Every experiment was carried out three times. The average and the standard deviation of the data were calculated."}, "[3]": {"tested_on": "trypsin", "test": "Degradation of insulin induced by trypsin (remaining insulin by HPLC and PAGE)", "assay_type": "in vitro ADME", "method": "as §1, §2, §3"}}}
{"substance": "Casein", "values": [{"measurement": "ΔA275", "setting": "[1]", "result": 0.219}]}
{"substance": "Insulin", "values": [{"measurement": "insulin detected (remaining) against α-chymotrypsin, treated with HP-β-CD", "setting": "[2]; insulin 0.5 mg/mL, insulin:HP-β-CD = 1:30 (mass), α-chymotrypsin 8 mg/L, PBS pH 7.0, 37 °C, sampling 0-60 min, HPLC UV 214 nm, mean of n=3, P>0.05 vs insulin alone", "result": "About 25%"}, {"measurement": "insulin remained undegraded against α-chymotrypsin, treated with casein", "setting": "[2]; insulin 0.5 mg/mL, insulin:casein = 1:10 (mass), α-chymotrypsin 8 mg/L, PBS pH 7.0, 37 °C, sampling 0-60 min, HPLC UV 214 nm, mean of n=3, P<0.01 vs insulin alone", "result": "about 45%"}, {"measurement": "insulin remained undegraded against α-chymotrypsin, co-incubated with HP-β-CD and casein", "setting": "[2]; insulin 0.5 mg/mL, insulin:casein:HP-β-CD = 1:10:30 (mass), α-chymotrypsin 8 mg/L, PBS pH 7.0, 37 °C, sampling 0-60 min, HPLC UV 214 nm, mean of n=3, P<0.001 vs insulin alone", "result": "About 80%"}, {"measurement": "remaining insulin against α-chymotrypsin", "setting": "[2]; insulin alone 0.5 mg/mL, α-chymotrypsin 8 mg/L, PBS pH 7.0, 37 °C, after 60 min, 15 min pre-incubation, HPLC UV 214 nm and PAGE, n=3", "result": "most of insulin was degraded"}, {"measurement": "remained insulin against α-chymotrypsin in the solution containing casein and protamine", "setting": "[2]; insulin with casein and protamine, α-chymotrypsin, 37 °C, data not shown", "result": "almost equal to that in the solution containing casein"}, {"measurement": "degradation of insulin by trypsin, treated with HP-β-CD", "setting": "[3]; insulin 0.5 mg/mL, insulin:HP-β-CD = 1:30 (mass), trypsin 600 mg/L, PBS pH 7.0, 37 °C, 0-60 min, n=3, P>0.05 vs insulin alone", "result": "partly inhibited"}, {"measurement": "degradation of insulin by trypsin in the presence of protamine", "setting": "[3]; insulin 0.5 mg/mL, insulin:protamine = 1:10 (mass), trypsin 600 mg/L, PBS pH 7.0, 37 °C, 0-60 min, n=3, P<0.05 vs insulin alone", "result": "significantly decreased"}, {"measurement": "insulin detected (remaining) against trypsin, co-incubated with HP-β-CD and protamine", "setting": "[3]; insulin 0.5 mg/mL, insulin:protamine:HP-β-CD = 1:10:30 (mass), trypsin 600 mg/L, PBS pH 7.0, 37 °C, at 60 min, HPLC UV 214 nm, mean of n=3, P<0.01 vs insulin alone", "result": "about 70%"}, {"measurement": "insulin remained against trypsin", "setting": "[3]; insulin alone 0.5 mg/mL, trypsin 600 mg/L, PBS pH 7.0, 37 °C, after 60 min, 15 min pre-incubation, HPLC UV 214 nm, mean of n=3", "result": "about 15%"}, {"measurement": "remaining insulin against trypsin in the solution containing casein and protamine", "setting": "[3]; insulin with casein and protamine, trypsin, 37 °C, data not shown", "result": "almost equal to that in the solution containing protamine"}, {"measurement": "ΔA275", "setting": "[1]", "result": 0.098}]}
